# Patent US20040106557
# “Also recorded” adds a separate entry of the source.
# What was measured:
# [1] = test system: GST-A-1 (peptide A-1 expressed as glutathione S-transferase fusion protein)
# [2] = test system: GST-B-2 (peptide B-2 expressed as glutathione S-transferase fusion protein)
# [3] = test system: GST-C-4 (peptide C-4 expressed as glutathione S-transferase fusion protein)
# [4] = test system: SKSKSKS-aca-CVAYCIEHHCWTC (SKSKSKS-tailed peptide C4)
# Target sequence (chain, as listed by the source): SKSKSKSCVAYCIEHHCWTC
# [5] = test system: chemically synthesized peptide A-1 (A-1-1, A-1 parent)
# [6] = test system: chemically synthesized peptide C-4 without GA flanks (C-4-1, C4 parent)
# [7] = biological target: insulin like growth factor-binding protein 3 (IGF-BP-3) (UniProt P17936)
# [8] = test system: mercaptoethanol-reduced C4
# Sequence of insulin like growth factor-binding protein 3 (IGF-BP-3) (P17936 28-291): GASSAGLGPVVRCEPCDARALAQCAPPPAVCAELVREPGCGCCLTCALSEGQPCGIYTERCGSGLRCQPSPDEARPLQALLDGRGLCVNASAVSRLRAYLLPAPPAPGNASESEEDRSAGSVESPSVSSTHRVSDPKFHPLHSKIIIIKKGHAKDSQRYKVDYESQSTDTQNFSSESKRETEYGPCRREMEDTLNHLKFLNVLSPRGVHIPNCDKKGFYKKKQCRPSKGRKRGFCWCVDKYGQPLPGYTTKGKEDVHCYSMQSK
substance,measurement,setting,value
"Prostate specific antigen (PSA), purified from human seminal fluid","PSA enzyme activity (A405) on substrate S-2586; PSA 0.33 µM, peptide in 30-fold molar excess",125I-labeled C4,"125-iodinated C4: rises to about 0.048 at 58 min, little above PSA alone (about 0.040) and far under C4 (about 0.070)"
same,PSA enzyme activity (A405) on substrate S-2586; PSA 0.33 µM with 100 µL of C18 fractions of the Eu-labelling mixture of C4,Eu-labelled C4-peptide,"at 60 min fraction 27 reaches about 0.043, fraction 26 about 0.037, fraction 28 about 0.024; all other fractions and the PSA control lie together at about 0.006-0.011"
same,PSA activity against the chromogenic substrate S-2586 (A405),[1],The enzyme activity of PSA was significantly enhanced by the GST-peptides
same,PSA activity against the chromogenic substrate S-2586 (A405),[2],The enzyme activity of PSA was significantly enhanced by the GST-peptides
same,PSA activity against the chromogenic substrate S-2586 (A405),[3],stimulating PSA activity against the chromogenic substrate about 5-fold
same,"PSA enzyme activity (A405 nm) on substrate S-2586; PSA 0.33 µM, peptide in 30-fold molar excess",[4],"SKSKSKS-tailed C4: rises linearly to about 0.060 at 65 min, just under non-tailed C4; PSA control about 0.021"
same,"PSA enzyme activity (A405) on substrate S-2586; PSA 0.33 µM, peptide in 30-fold molar excess",Tc99m-labeled C4,"C4-technetium-conjugate: rises to about 0.12 at 95 min, between unlabelled C4 (about 0.16) and the PSA control (about 0.095); wide error bars"
same,"cleavage of IGF-BP-3 by PSA (IGF-BP-3 IFMA), 100-fold molar excess of peptide",[5],about 70% cleavage of IGF-BP-3
same,PSA enzyme activity (A405) on substrate S-2586; PSA 0.33 µM,[6],Unlabelled C4: rises to about 0.16 at 95 min; PSA control about 0.095; also recorded: C4: rises to about 0.070 at 58 min; PSA alone about 0.040
same,"PSA enzyme activity (A405 nm) on substrate S-2586; PSA 0.33 µM, peptide in 30-fold molar excess",[6],non-tailed C4: rises linearly to about 0.063 at 65 min; PSA control about 0.021
same,"cleavage of IGF-BP-3 by PSA (IGF-BP-3 IFMA), 100-fold molar excess of peptide",[6],about 70% cleavage of IGF-BP-3
same,decrease in IGF-BP-3 immunoreactivity (IFMA) after 16 h at 37 °C,[7],PSA alone slowly cleaved IGF-BP-3 as revealed by an 30% decrease in immunoreactivity
same,PSA enzyme activity (A405) on substrate S-2586; PSA 0.33 µM,[8],"mercaptoethanol-reduced C4: curve lies on that of the PSA control over the whole time, about 0.095 at 95 min: no enhancement"
